Measured values: publication PMC9482650, “Quantitative fragmentomics allow affinity mapping of interactomes” (Nature Communications, 2022)

T1: NHERF3_1, Q5T2W1
T1 sequence (Q5T2W1 4-100, limits assumed, looked up): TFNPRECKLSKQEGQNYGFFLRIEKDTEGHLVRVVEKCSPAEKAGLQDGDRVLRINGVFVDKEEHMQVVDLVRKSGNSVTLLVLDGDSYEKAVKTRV

T2: NHERF3_3, Q5T2W1
T2 sequence (Q5T2W1 238-333, limits assumed, looked up): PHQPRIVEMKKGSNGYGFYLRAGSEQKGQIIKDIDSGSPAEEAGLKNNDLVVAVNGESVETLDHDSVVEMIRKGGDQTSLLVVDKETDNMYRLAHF

T3: SNTG1, Q9NSN8
T3 sequence (Q9NSN8 52-150, limits assumed, looked up): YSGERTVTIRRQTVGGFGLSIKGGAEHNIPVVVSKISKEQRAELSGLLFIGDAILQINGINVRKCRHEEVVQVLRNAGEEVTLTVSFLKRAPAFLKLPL

T4: HTRA3, P83110
T4 sequence (P83110 354-453, limits assumed, looked up): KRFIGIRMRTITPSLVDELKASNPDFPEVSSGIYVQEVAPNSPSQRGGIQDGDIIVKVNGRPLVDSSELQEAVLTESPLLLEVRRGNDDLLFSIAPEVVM

T5: LNX2_2, Q8N448
T5 sequence (Q8N448 334-432, limits assumed, looked up): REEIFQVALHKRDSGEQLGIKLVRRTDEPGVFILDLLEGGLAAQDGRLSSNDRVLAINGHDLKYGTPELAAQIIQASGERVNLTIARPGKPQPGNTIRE

T6: LIN7B, Q9HAP6
T6 sequence (Q9HAP6 88-185, limits assumed, looked up): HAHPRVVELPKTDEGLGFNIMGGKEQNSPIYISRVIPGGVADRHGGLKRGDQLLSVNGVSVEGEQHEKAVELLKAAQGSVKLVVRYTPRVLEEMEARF

T7: LRRC7, Q96NW7
T7 sequence (Q96NW7 1440-1537, limits assumed, looked up): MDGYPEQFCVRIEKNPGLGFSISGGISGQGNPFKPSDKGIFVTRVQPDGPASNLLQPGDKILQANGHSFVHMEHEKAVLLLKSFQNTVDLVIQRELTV

T8: CARD11, Q9BXL7
T8 sequence (Q9BXL7 662-765, limits assumed, looked up): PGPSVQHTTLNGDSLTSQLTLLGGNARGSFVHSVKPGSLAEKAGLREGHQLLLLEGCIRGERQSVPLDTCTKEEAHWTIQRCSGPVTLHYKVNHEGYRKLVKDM

T9: PCLO, Q9Y6V0
T9 sequence (Q9Y6V0 4491-4600, limits assumed, looked up): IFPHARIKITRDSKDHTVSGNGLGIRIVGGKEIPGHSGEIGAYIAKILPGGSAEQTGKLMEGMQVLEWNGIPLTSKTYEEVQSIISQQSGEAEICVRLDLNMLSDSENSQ

B1: SBF1, O95248 (peptide)
chain: DRIQSCLSDA

Biological target: T1, NHERF3_1, Q5T2W1
Assay: holdup assay
Set-up: key: below the threshold = too weak to quantify, mostly under pKd 3.1 to 4
Conditions: plain residues with an end cap or a label only (N-terminal biotin on a linker: ado-ado)

pKd | Binder
below the threshold | B1

Biological target: MAGI2_4, Q86UL8
Assay: holdup assay
Set-up: key: below the threshold = too weak to quantify, mostly under pKd 3.1 to 4
Conditions: plain residues with an end cap or a label only (N-terminal biotin on a linker: ado-ado)

MAGI2_4, Q86UL8, sequence (Q86UL8 772-865): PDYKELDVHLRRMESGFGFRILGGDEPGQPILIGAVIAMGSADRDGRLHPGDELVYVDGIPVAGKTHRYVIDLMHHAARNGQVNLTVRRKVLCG

pKd | Binder
3.7 | B1

Biological target: Inadl_5, Q8NI35
Assay: holdup assay
Set-up: key: below the threshold = too weak to quantify, mostly under pKd 3.1 to 4
Conditions: plain residues with an end cap or a label only (N-terminal biotin on a linker: ado-ado)

Inadl_5, Q8NI35, sequence (Q8NI35 673-780): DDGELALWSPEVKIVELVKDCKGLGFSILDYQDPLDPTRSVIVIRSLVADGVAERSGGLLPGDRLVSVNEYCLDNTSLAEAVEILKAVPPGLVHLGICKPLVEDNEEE

pKd | Binder
below the threshold | B1

Biological target: IL16_3, Q14005
Assay: holdup assay
Set-up: key: below the threshold = too weak to quantify, mostly under pKd 3.1 to 4
Conditions: plain residues with an end cap or a label only (N-terminal biotin on a linker: ado-ado)

IL16_3, Q14005, sequence (Q14005 1107-1207): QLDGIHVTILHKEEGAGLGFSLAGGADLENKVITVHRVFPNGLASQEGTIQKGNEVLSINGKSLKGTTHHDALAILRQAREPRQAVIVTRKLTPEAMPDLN

pKd | Binder
below the threshold | B1

Biological target: DLG4_3, P78352
Assay: holdup assay
Set-up: key: below the threshold = too weak to quantify, mostly under pKd 3.1 to 4
Conditions: plain residues with an end cap or a label only (N-terminal biotin on a linker: ado-ado)

DLG4_3, P78352, sequence (P78352 306-403): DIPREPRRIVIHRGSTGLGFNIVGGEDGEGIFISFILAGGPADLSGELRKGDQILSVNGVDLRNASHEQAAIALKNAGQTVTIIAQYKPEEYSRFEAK

pKd | Binder
below the threshold | B1

Biological target: GRIP2_5, Q9C0E4
Assay: holdup assay
Set-up: key: below the threshold = too weak to quantify, mostly under pKd 3.1 to 4
Conditions: plain residues with an end cap or a label only (N-terminal biotin on a linker: ado-ado)

GRIP2_5, Q9C0E4, sequence (Q9C0E4 544-642): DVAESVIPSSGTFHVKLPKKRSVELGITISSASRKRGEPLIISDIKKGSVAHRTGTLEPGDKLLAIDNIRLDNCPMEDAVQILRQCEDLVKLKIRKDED

pKd | Binder
below the threshold | B1

Biological target: GOPC, Q9HD26
Assay: holdup assay
Set-up: key: below the threshold = too weak to quantify, mostly under pKd 3.1 to 4
Conditions: plain residues with an end cap or a label only (N-terminal biotin on a linker: ado-ado)

pKd | Binder
below the threshold | B1

Biological target: SNX27, Q96L92
Assay: holdup assay
Set-up: key: below the threshold = too weak to quantify, mostly under pKd 3.1 to 4
Conditions: plain residues with an end cap or a label only (N-terminal biotin on a linker: ado-ado)

pKd | Binder
below the threshold | B1

Biological target: T2, NHERF3_3, Q5T2W1
Assay: holdup assay
Set-up: key: below the threshold = too weak to quantify, mostly under pKd 3.1 to 4
Conditions: plain residues with an end cap or a label only (N-terminal biotin on a linker: ado-ado)

pKd | Binder
below the threshold | B1

Biological target: T3, SNTG1, Q9NSN8
Assay: holdup assay
Set-up: key: below the threshold = too weak to quantify, mostly under pKd 3.1 to 4
Conditions: plain residues with an end cap or a label only (N-terminal biotin on a linker: ado-ado)

pKd | Binder
below the threshold | B1

Biological target: TJP2_1, Q9UDY2
Assay: holdup assay
Set-up: key: below the threshold = too weak to quantify, mostly under pKd 3.1 to 4
Conditions: plain residues with an end cap or a label only (N-terminal biotin on a linker: ado-ado)

TJP2_1, Q9UDY2, sequence (Q9UDY2 24-128): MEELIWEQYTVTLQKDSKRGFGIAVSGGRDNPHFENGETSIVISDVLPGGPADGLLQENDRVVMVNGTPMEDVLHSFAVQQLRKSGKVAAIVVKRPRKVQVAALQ

pKd | Binder
below the threshold | B1

Biological target: LAP2, Q96RT1
Assay: holdup assay
Set-up: key: below the threshold = too weak to quantify, mostly under pKd 3.1 to 4
Conditions: plain residues with an end cap or a label only (N-terminal biotin on a linker: ado-ado)

LAP2, Q96RT1, sequence (Q96RT1 other isoform, or with tags, fused parts or gaps): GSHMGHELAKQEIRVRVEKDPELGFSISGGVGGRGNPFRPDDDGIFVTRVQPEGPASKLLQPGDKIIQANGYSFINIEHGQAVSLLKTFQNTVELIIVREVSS

pKd | Binder
below the threshold | B1

Biological target: DLG5_1, Q8TDM6
Assay: holdup assay
Set-up: key: below the threshold = too weak to quantify, mostly under pKd 3.1 to 4
Conditions: plain residues with an end cap or a label only (N-terminal biotin on a linker: ado-ado)

DLG5_1, Q8TDM6, sequence (Q8TDM6 617-713): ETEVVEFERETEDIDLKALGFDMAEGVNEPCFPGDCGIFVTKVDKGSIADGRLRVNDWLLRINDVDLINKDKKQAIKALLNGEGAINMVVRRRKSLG

pKd | Binder
below the threshold | B1

Biological target: NHERF4_1, Q86UT5-2
Assay: holdup assay
Set-up: key: below the threshold = too weak to quantify, mostly under pKd 3.1 to 4
Conditions: plain residues with an end cap or a label only (N-terminal biotin on a linker: ado-ado)

NHERF4_1, Q86UT5-2, sequence (Q86UT5 other isoform, or with tags, fused parts or gaps): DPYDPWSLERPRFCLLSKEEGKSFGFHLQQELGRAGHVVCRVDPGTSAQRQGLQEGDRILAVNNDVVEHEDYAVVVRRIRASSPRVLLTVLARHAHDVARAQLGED

pKd | Binder
below the threshold | B1

Biological target: T4, HTRA3, P83110
Assay: holdup assay
Set-up: key: below the threshold = too weak to quantify, mostly under pKd 3.1 to 4
Conditions: plain residues with an end cap or a label only (N-terminal biotin on a linker: ado-ado)

pKd | Binder
3.57 | B1

Biological target: T5, LNX2_2, Q8N448
Assay: holdup assay
Set-up: key: below the threshold = too weak to quantify, mostly under pKd 3.1 to 4
Conditions: plain residues with an end cap or a label only (N-terminal biotin on a linker: ado-ado)

pKd | Binder
below the threshold | B1

Biological target: GRIP2_7, Q9C0E4
Assay: holdup assay
Set-up: key: below the threshold = too weak to quantify, mostly under pKd 3.1 to 4
Conditions: plain residues with an end cap or a label only (N-terminal biotin on a linker: ado-ado)

GRIP2_7, Q9C0E4, sequence (Q9C0E4 934-1023): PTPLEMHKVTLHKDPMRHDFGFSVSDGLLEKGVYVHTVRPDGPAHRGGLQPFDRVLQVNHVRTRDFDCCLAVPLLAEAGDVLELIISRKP

pKd | Binder
below the threshold | B1

Biological target: LDB3, O75112
Assay: holdup assay
Set-up: key: below the threshold = too weak to quantify, mostly under pKd 3.1 to 4
Conditions: plain residues with an end cap or a label only (N-terminal biotin on a linker: ado-ado)

LDB3, O75112, sequence (O75112 1-94): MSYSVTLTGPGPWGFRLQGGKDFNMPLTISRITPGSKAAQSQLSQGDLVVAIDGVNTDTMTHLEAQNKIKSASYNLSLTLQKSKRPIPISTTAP

pKd | Binder
below the threshold | B1

Biological target: T6, LIN7B, Q9HAP6
Assay: holdup assay
Set-up: key: below the threshold = too weak to quantify, mostly under pKd 3.1 to 4
Conditions: plain residues with an end cap or a label only (N-terminal biotin on a linker: ado-ado)

pKd | Binder
3.72 | B1

Biological target: PICK1, Q9NRD5
Assay: holdup assay
Set-up: key: below the threshold = too weak to quantify, mostly under pKd 3.1 to 4
Conditions: plain residues with an end cap or a label only (N-terminal biotin on a linker: ado-ado)

PICK1, Q9NRD5, sequence (Q9NRD5 17-115): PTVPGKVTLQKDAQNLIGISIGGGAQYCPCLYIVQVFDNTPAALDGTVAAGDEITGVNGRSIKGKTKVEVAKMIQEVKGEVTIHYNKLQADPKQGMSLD

pKd | Binder
below the threshold | B1

Biological target: SCRIB_3, Q14160
Assay: holdup assay
Set-up: key: below the threshold = too weak to quantify, mostly under pKd 3.1 to 4
Conditions: plain residues with an end cap or a label only (N-terminal biotin on a linker: ado-ado)

SCRIB_3, Q14160, sequence (Q14160 999-1103): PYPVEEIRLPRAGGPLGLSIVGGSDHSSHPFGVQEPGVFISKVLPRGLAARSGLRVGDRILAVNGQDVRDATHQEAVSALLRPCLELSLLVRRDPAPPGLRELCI

pKd | Binder
below the threshold | B1

Biological target: T7, LRRC7, Q96NW7
Assay: holdup assay
Set-up: key: below the threshold = too weak to quantify, mostly under pKd 3.1 to 4
Conditions: plain residues with an end cap or a label only (N-terminal biotin on a linker: ado-ado)

pKd | Binder
below the threshold | B1

Biological target: SCRIB_2, Q14160
Assay: holdup assay
Set-up: key: below the threshold = too weak to quantify, mostly under pKd 3.1 to 4
Conditions: plain residues with an end cap or a label only (N-terminal biotin on a linker: ado-ado)

SCRIB_2, Q14160, sequence (Q14160 857-960): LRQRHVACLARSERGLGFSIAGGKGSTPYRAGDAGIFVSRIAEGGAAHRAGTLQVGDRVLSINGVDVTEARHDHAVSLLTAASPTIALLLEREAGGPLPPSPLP

pKd | Binder
below the threshold | B1

Biological target: GRID2IP_2, A4D2P6
Assay: holdup assay
Set-up: key: below the threshold = too weak to quantify, mostly under pKd 3.1 to 4
Conditions: plain residues with an end cap or a label only (N-terminal biotin on a linker: ado-ado)

GRID2IP_2, A4D2P6, sequence (A4D2P6 272-370): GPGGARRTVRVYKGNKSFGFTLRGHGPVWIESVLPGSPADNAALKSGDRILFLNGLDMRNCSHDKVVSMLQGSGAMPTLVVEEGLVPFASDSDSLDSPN

pKd | Binder
below the threshold | B1

Biological target: NHERF4_2, Q86UT5
Assay: holdup assay
Set-up: key: below the threshold = too weak to quantify, mostly under pKd 3.1 to 4
Conditions: plain residues with an end cap or a label only (N-terminal biotin on a linker: ado-ado)

NHERF4_2, Q86UT5, sequence (Q86UT5 220-308): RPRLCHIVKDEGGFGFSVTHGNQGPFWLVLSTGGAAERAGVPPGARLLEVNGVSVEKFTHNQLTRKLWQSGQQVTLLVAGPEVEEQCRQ

pKd | Binder
below the threshold | B1

Biological target: Inadl_10, Q8NI35
Assay: holdup assay
Set-up: key: below the threshold = too weak to quantify, mostly under pKd 3.1 to 4
Conditions: plain residues with an end cap or a label only (N-terminal biotin on a linker: ado-ado)

Inadl_10, Q8NI35, sequence (Q8NI35 1673-1763): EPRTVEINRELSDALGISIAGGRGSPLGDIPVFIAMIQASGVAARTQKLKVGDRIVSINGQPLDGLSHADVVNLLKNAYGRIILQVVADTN

pKd | Binder
below the threshold | B1

Biological target: T8, CARD11, Q9BXL7
Assay: holdup assay
Set-up: key: below the threshold = too weak to quantify, mostly under pKd 3.1 to 4
Conditions: plain residues with an end cap or a label only (N-terminal biotin on a linker: ado-ado)

pKd | Binder
below the threshold | B1

Biological target: T9, PCLO, Q9Y6V0
Assay: holdup assay
Set-up: key: below the threshold = too weak to quantify, mostly under pKd 3.1 to 4
Conditions: plain residues with an end cap or a label only (N-terminal biotin on a linker: ado-ado)

pKd | Binder
below the threshold | B1
